According to publication PMC3034353:
Blank lines part the entries; values can stand above or below the substance they belong to.

Experiments:
[1] = biological target: Bacillus subtilis τ protein (wild type) (B. subtilis) (UniProt P09122); assay: SEC
[2] = biological target: Bacillus stearothermophilus DnaB helicase (B. stearothermophilus) (UniProt Q9X4C9); assay: AUC
[3] = biological target: Bacillus subtilis τ protein L381A mutant (B. subtilis) (UniProt P09122); assay: SEC
[4] = biological target: Bacillus subtilis τ protein L381A mutant (B. subtilis) (UniProt P09122); assay: AUC
[5] = biological target: Bacillus subtilis τ protein L381P mutant (B. subtilis) (UniProt P09122); assay: SEC

stoichiometry N [1]: 4
stoichiometry N (τ pentamer per DnaB hexamer) [2]: 1
Substance: Bacillus subtilis τ protein (wild type) (from UniProt P09122 1-563) (natural protein)

stoichiometry N [3]: 3
stoichiometry N [4]: 4
Substance: Bacillus subtilis τ protein L381A mutant (from UniProt P09122 1-563) (natural protein)

stoichiometry N [5]: 3
Substance: Bacillus subtilis τ protein L381P mutant (from UniProt P09122 1-563) (natural protein)
